Experiments:
[1] = test system: vessel formation and infiltration into Matrigel plugs; test: Matrigel plug implantation assay; type: in vivo, C57BL/6 mice
Description: The effect of MAGP-2 on vessel formation and infiltration into Matrigel plugs implanted into genetically normal mice was determined as described (Albig et al, 2006). Briefly, phenol red-free Matrigel (BD biosciences, Bedford, Mass.) was mixed with PBS (diluent), bFGF (50 or 300 ng/ml; R&D Systems, Minneapolis, Minn.), or recombinant MAGP-2 (1 μg/ml) together with bFGF (50 ng/ml), and the resulting mixtures were injected twice subcutaneously in the ventral groin area (400 μl/injection) of C57BL/6 mice. The mice were sacrificed 10 days post-implantation and the Matrigel plugs were dissected, fixed overnight in 10% formalin, and sectioned in the National Jewish Histology Laboratory. Afterward, Masson's trichrome staining was performed to visualize infiltrating vessels, which were quantified under a light microscope by determining the average number of vessels present in 5 random fields (200× magnification). Only those fields that contained at least one vessel in the area underlying the skin were tallied. Two mice were used per experimental condition and this experiment was performed three times in its entirety. All animal studies were performed according to protocol procedures approved by the Animal Care and Use Committee at National Jewish Medical and Research Center.
The inventors tested this hypothesis by utilizing the Matrigel plug implantation assay, which monitors the ability of various angiogenic agents to alter vessel formation and infiltration into Matrigel plugs implanted subcutaneously into normal mice. […] MAGP-2 purity was monitored by coomassie staining, and by immunoblotting with anti-FLAG M2 monoclonal antibodies (FIG. 2A; right panel). rMAGP-2 (1 μg/ml) stimulated angiogenic sprouting of quiescent MB114 cell monolayers (FIG. 2A; left panel). […] Afterward, the Matrigel plugs were fixed, sectioned, and stained with Masson's trichrome to visualize infiltrating blood vessels (FIG. 2B; right panels; arrows denote blood vessels), which were quantified by manual counting under a light microscope. […]

MCA102 fibrosarcomas = MCA102 fibrosarcomas produced in mice; type: in vivo
p38 MAPK = p38 MAPK phosphorylation by immunoblot analyses; type: cell-based, murine; details: serum-starved MB114 cells expressing the transgene; bFGF 50 ng/ml or EGF 10 ng/ml, 0-15 min
Description: (§1) The effect putative angiogenic agents had on MB114 cell activities were determined as follows: (i) cell proliferation using a [^3H]thymidine incorporation assay as described (Albig et al, 2006; Albig and Schiemann, 2004; Albig and Schiemann, 2005); (ii) cell invasion through Matrigel matrices using a modified Boyden-chamber assay as described (Albig et al, 2006; Albig and Schiemann, 2004; Albig and Schiemann, 2005); (iii) p38 MAPK phosphorylation using immunoblot analyses as described (Albig et al, 2006; Albig and Schiemann, 2004; Albig and Schiemann, 2005); (iv) angiogenic sprouting in rat tail collagen matrices as described (Albig et al, 2006; Albig and Schiemann, 2004); and (v) Hes1- and SBE-driven luciferase reporter gene assays as described (Albig et al, 2006; Albig and Schiemann, 2004; Albig and Schiemann, 2005).
The inventors' previous studies have associated stimulation of p38 MAPK activity with angiogenesis of MB114 cells and, conversely, inhibition of p38 MAPK activity with angiostasis of MB114 cells (Albig et al, 2006; Albig and Schiemann, 2004; Albig and Schiemann, 2005). […] The phosphorylation status of p38 MAPK was determined by immunoblotting whole cell lysates with phospho-specific p38 MAPK antibodies (p38-P). Differences in protein loading were monitored by reprobing stripped membranes with anti-p38 MAPK polyclonal antibodies (p38).

MB114 cells [2] = test: angiogenic sprouting in rat tail collagen matrices; type: cell-based, murine; details: MB114 cells stably expressing the transgene vs GFP; 10% FBS, 5 days
Description: as §1
Finally, it was determined whether expression of these putative angiogenic factors could effect the angiogenic sprouting of quiescent MB114 cells monolayers. MB114 cells expressing either GFP or various putative angiogenic agents were grown to confluency, and subsequently were overlaid with rat tail collagen matrices. Angiogenic sprouting by quiescent EC monolayers was stimulated by inclusion of 10% FBS and allowed to proceed for 5 days. The quantity of invading angiogenic sprouts was determined by manual counting under a light microscope.
Based on the findings described in the Examples above, the inventors hypothesized that MAGP-2 promotes angiogenesis by antagonizing Notch1 signaling. To test this hypothesis, it was first determined whether inhibiting Notch signaling in MB114 cells would enhance their angiogenic sprouting. In doing so, MB114 cells were transiently transfected with the Hes1-luciferase reporter gene (and pCMV-β-gal cDNA as control), and subsequently were treated overnight with or without the highly specific gamma-secretase inhibitor, DAPT (Sastre et al, 2001), which inhibits S3-mediated cleavage of Notch1 and, consequently, NICD-mediated induction of Hes1 expression. Afterward, luciferase and β-gal activities were determined. […] In this experiment, quiescent MB114 cell monolayers were overlaid with rat tail collagen matrices, and were induced to form angiogenic sprouts by addition of 10% FBS supplemented with or without DAPT (10 μM). Five days later the number of invading angiogenic spouts were quantified by manual counting on a light microscope. Based on these findings, the inventors conclude that Notch activation functions in mediating angiostasis in MB114 cells. […] Collectively, these findings indicate that Notch1 signaling antagonizes angiogenic sprouting in MB114 cells, and that downregulation of Notch1 signaling components is necessary for angiogenesis activation in MB114 cells.
Having shown that Notch1 signaling mediates angiostasis in MB114 cells, the inventors next asked whether MAGP-2 promotes angiogenesis in MB114 cells via its ability to antagonize Notch signaling. To do so, MAGP-2-expressing MB114 cells were engineered to constitutively express active Notch1 NICD fragment in an attempt to overcome the block of Notch processing mediated by MAGP-2. More particularly, GFP-, MAGP-2-, and MAGP-2/N1ICD-expressing MB114 cells were transiently transfected with pHes1-luciferase and pCMV-β-gal cDNAs. Luciferase and β-gal activities were determined 48 h post-transfection. As the inventors observed previously, MAGP-2 expression reduced Hes1-luciferase activity in MB114 cells (FIG. 5C), a reaction that was bypassed by co-expression of NICD in these cells (FIG. 5C). […] In this experiment, quiescent monolayers of GFP-, MAGP-2-, and MAGP-2/N1ICD-expressing MB114 cells were overlaid with rat tail collagen matrices and incubated in the absence or presence of 10% FBS for 5 days. Afterward, the number of invading angiogenic sprouts were determined by manual counting under a light microscope.

MB114 cells [3] = test: cell proliferation, [3H]thymidine incorporation assay; type: cell-based, murine
Description: as §1
(§2) FIG. 1A show results from an experiment in which serum-starved MB114 cells, stably expressing either GFP or various putative angiogenic agents, were stimulated in the absence or presence of either bFGF (50 ng/ml) or EGF (10 ng/ml) for 24 h at 37° C. Differences in MB114 cell DNA synthesis was determined by measuring [^3H]thymidine incorporation into cellular DNA. […] In this experiment, invasion of MB114 cells expressing either GFP or various putative angiogenic agents through synthetic basement membranes was determined over 48 h using a modified Boyden-chamber assay.

MB114 cells [4] = test: cell invasion through Matrigel matrices, modified Boyden-chamber assay; type: cell-based, murine; details: MB114 cells stably expressing the transgene vs GFP; 48 h
Description: as §1, §2

Which “vascularization of implanted Matrigel plugs” value ([1]; 50 or 300 ng/ml in Matrigel vs diluent, subcutaneous, C57BL/6 mice, day 10) does the source give for “bFGF: growth factor (R&D Systems) mixed into Matrigel at 50 or 300 ng/ml [reference compound]” here?
The value was “dose-dependently stimulated”.

B1: lumican: SLRP family secreted proteoglycan stably expressed in MB114 cells by retroviral transduction (protein, UniProt P51885 19-338, looked up)
Lumican: QYYDYDIPLFMYGQISPNCAPECNCPHSYPTAMYCDDLKLKSVPMVPPGIKYLYLRNNQIDHIDEKAFENVTDLQWLILDHNLLENSKIKGKVFSKLKQLKKLHINYNNLTESVGPLPKSLQDLQLTNNKISKLGSFDGLVNLTFIYLQHNQLKEDAVSASLKGLKSLEYLDLSFNQMSKLPAGLPTSLLTLYLDNNKISNIPDEYFKRFTGLQYLRLSHNELADSGVPGNSFNISSLLELDLSYNKLKSIPTVNENLENYYLEVNELEKFDVKSFCKILGPLSYSKIKHLRLDGNPLTQSSLPPDMYECLRVANEITVN
Which “development and infiltration of vessels in Matrigel plugs implanted into mice” value ([1]; unpublished observations) does the source give for B1 here?
The value was “antagonizes”.

And the “growth of MCA102 fibrosarcomas produced in mice” value (MCA102 fibrosarcomas; unpublished observation)?
Its value is “decreases”.

And the “blood vessel density of MCA102 fibrosarcomas produced in mice” value (MCA102 fibrosarcomas; unpublished observations)?
The value was “decreases”.

And the “p38 MAPK phosphorylation” value (p38 MAPK)?
Its value is “significantly inhibited”.

And the “angiogenic sprouting of quiescent MB114 cell monolayers” value (MB114 cells [2])?
The value was “significantly decreased”.

What about the MB114 cell proliferation (MB114 cells [3]; transgene expression in MB114 cells, data not shown) of the same molecule?
Its MB114 cell proliferation is “inhibit”.

B2: SMOC-2: secretory protein stably expressed in MB114 cells by retroviral transduction (protein, UniProt Q8CD91 22-447, looked up)
SPARC-related modular …: QKFSALTFLRVDQDKDRDCSLDCPSSPQKPLCASDGRTFLSRCEFQRAKCKDPQLEIAHRGNCKDVSRCVAERKYTQEQARKEFQQVFIPECNDDGTYSQVQCHSYTGYCWCVTPNGRPISGTAVAHKTPRCPGSINEKVPQREGAGKADDAAAPALETQPQGDEEDIASRYPTLWTEQVKSRQNKTNKNSASSCDQEHQSALEEAKQPKNDNVVIPECAHGGLYKPVQCHPSTGYCWCVLVDTGRPIPGTSTRYEQPKCDNTARAHPAKARDLYKNRPLQGCPGAKKHEFLTSVLDALSTDMVHAVSDPSSSSGRLSEPDPSHTLEERVVHWYFKLLDKNSSGDIGKKEIKPFKRFLRKKSKPKKCVKKFVEYCDMNNDKSITVQELMGCLGVTREEGKANTRKRHTPRGNAESSSSNRQPRKQG
How did the “MB114 cell invasion through synthetic basement membranes” value (MB114 cells [4]) turn out when B2 was run?
The value was “significantly induced”.

What about the “angiogenic sprouting of quiescent MB114 cell monolayers” value (MB114 cells [2]) of the same molecule?
The value was “significantly increased”.

And the “proliferative response of MB114 cells to bFGF ([3H]thymidine incorporation into cellular DNA)” value (MB114 cells [3]; serum-starved MB114 cells stably expressing the transgene vs GFP, bFGF 50 ng/ml, 24 h, 37° C.)?
Its value is “significantly enhanced”.
